Here are results for 38 sequences from the supplement of paper PMC7877785.

± gives the uncertainty stated by the source.

The series is described as follows: self-splicing fitness, log relative to wild type (ln ratio); higher = more splicing; Tetrahymena group I intron in knt gene, E. coli kanamycin selection, DiMSum; sequences stand for … in CUCUCU…GGAGGGAAAAGUUAUCAGGCAUGCACCUGGUAGCUAGUCUUUAAACCAAUAGAUUGCAUCGGUUUAAAAGGCAAGACCGUCAAAUUGCGGGAAAGGGGUCAACAGCCGUUCAGUACCAAGUCUCAGGGGAAACUUUGAGAUGGCCUUGCAAAGGGUAUGGUAAUAAGCUGACGGACAUGGUCCUAACCACGCAGCCAAGUCCUAAGUCAACAGAUCUUCUGUUGAUAUGGAUGCAGUUCACAGACUAAAUGUCGGUCGGGGAAGAUGUAUUCUUCUCAUAAGAUAUAGUCGGACCUCUCCUUAAUGGGAGCUAGCGGAUGAAGUGAUGCAACACUGGAGCCGCUGGGAACUAAUUUGUAUGCGAAAGUAUAUUGAUUAGUUUUGGAGUACUCGUGGUCG
An outline of the steps: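 Six replicate transformations of E. coli BL21(DE3) with a pET-22b(+) library were grown overnight at 37°C or 30°C. The library randomised all eight P1ex-region intron nucleotides, the intron lying in the knt kanamycin-resistance gene, and plates were LB agar with or without 25 μg/mL kanamycin plus 100 μg/mL carbenicillin, 50 μM IPTG and 0.2% rhamnose. Pooled colonies were amplicon-sequenced on an Illumina HiSeq 2500, and fitness is the DiMSum error-weighted combination of wild-type-normalised replicate fold changes, kanamycin versus none.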

Take ACGUAGCAAUAUUACGCGCA: the “self-splicing fitness (ln)” value runs as follows: (30 °C) -0.687 ± 0.076; (37 °C) -0.337 ± 0.097. With AAGUAGCAAUAUUACGGAAC, the “self-splicing fitness (ln)” value is -1.4 ± 0.49 (30 °C) and -1.46 ± 0.25 (37 °C). CUCAAGCAAUAUUACGUUCU: the “self-splicing fitness (ln)” value (30 °C) is -3.9 ± 0.19 and the “self-splicing fitness (ln)” value (37 °C) was -2.68 ± 0.17.

For CCCGAGCAAUAUUACGAAGC, under “30 °C”, the “self-splicing fitness (ln)” value was -3.12 ± 0.26. Turning to CCCAAGCAAUAUUACGUUGA, the “self-splicing fitness (ln)” value was -3.74 ± 0.14 (30 °C) and -3.04 ± 0.14 (37 °C). For the sequence GGCCAGCAAUAUUACGACUU, the “self-splicing fitness (ln)” value is -0.142 ± 0.084 (30 °C) and 0.435 ± 0.11 (37 °C).

Consider AUCGAGCAAUAUUACGCGUG, for which the “self-splicing fitness (ln)” value was -2.55 ± 0.13 (30 °C) and -1.2 ± 0.14 (37 °C). GGUGAGCAAUAUUACGAUGA: the “self-splicing fitness (ln)” value is -3.32 ± 0.29 (30 °C) and -2.29 ± 0.21 (37 °C).

Take AUACAGCAAUAUUACGGUCU: the “self-splicing fitness (ln)” value is, setting by setting: (30 °C) 0.331 ± 0.06; (37 °C) -0.16 ± 0.064. Take UGCGAGCAAUAUUACGCACA: the “self-splicing fitness (ln)” value reads like this: (30 °C) -1.31 ± 0.22; (37 °C) -2.16 ± 0.28. On the same counts, the results for GUACAGCAAUAUUACGUCCU are -1.4 ± 0.12 and -0.91 ± 0.11. As for UCCAAGCAAUAUUACGCAUG, the “self-splicing fitness (ln)” value by setting is: (30 °C) -4.8 ± 0.31; (37 °C) -2.27 ± 0.19. As to CCAAAGCAAUAUUACGCUAG, the “self-splicing fitness (ln)” value runs as follows: (30 °C) -3.78 ± 0.2; (37 °C) -2.4 ± 0.16. In the case of AGCUAGCAAUAUUACGCCAC, the “self-splicing fitness (ln)” value by setting is: (30 °C) -3.18 ± 0.32; (37 °C) -2.45 ± 0.42. As for AUCCAGCAAUAUUACGUUAA, the “self-splicing fitness (ln)” value reads like this: (30 °C) -1.79 ± 0.11; (37 °C) -1.1 ± 0.12.

On to GGCCAGCAAUAUUACGAACG, for which the “self-splicing fitness (ln)” value is, setting by setting: (30 °C) -2.65 ± 0.41; (37 °C) -0.764 ± 0.3.

As to CUGUAGCAAUAUUACGCCGC, the “self-splicing fitness (ln)” value reads like this: (30 °C) -2.54 ± 0.41; (37 °C) -1.08 ± 0.47.

Consider UCAAAGCAAUAUUACGCGUC, for which the “self-splicing fitness (ln)” value runs as follows: (30 °C) -3.15 ± 0.14; (37 °C) -2.89 ± 0.18.

On to ACGGAGCAAUAUUACGAAUG, for which the “self-splicing fitness (ln)” value (30 °C) was -3.88 ± 0.43 and the “self-splicing fitness (ln)” value (37 °C) is -0.307 ± 0.27. In the case of AUCUAGCAAUAUUACGUGUC, the “self-splicing fitness (ln)” value (30 °C) was -3.9 ± 0.36 and the “self-splicing fitness (ln)” value (37 °C) was -2.64 ± 0.24. Take UAGGAGCAAUAUUACGUGCA: the “self-splicing fitness (ln)” value by setting is: (30 °C) -1.88 ± 0.17; (37 °C) -1.41 ± 0.19. On to CGCUAGCAAUAUUACGAUCA, for which the “self-splicing fitness (ln)” value by setting is: (30 °C) -0.592 ± 0.16; (37 °C) -0.635 ± 0.13. Turning to UUAUAGCAAUAUUACGCUAG, the “self-splicing fitness (ln)” value runs as follows: (30 °C) -1.92 ± 0.2; (37 °C) -0.0618 ± 0.24. For UGUAAGCAAUAUUACGUAUA, the “self-splicing fitness (ln)” value (30 °C) is -1.21 ± 0.097 and the “self-splicing fitness (ln)” value (37 °C) is -0.761 ± 0.12.

With GUCGAGCAAUAUUACGACCG, the “self-splicing fitness (ln)” value (30 °C) is -1.69 ± 0.5. In the case of ACAAAGCAAUAUUACGGGAA, the “self-splicing fitness (ln)” value (30 °C) was -2.44 ± 0.18 and the “self-splicing fitness (ln)” value (37 °C) was -2.48 ± 0.17. Take CGUUAGCAAUAUUACGUAUU: the “self-splicing fitness (ln)” value was -3.02 ± 0.18 (30 °C) and -2.64 ± 0.19 (37 °C). GCGCAGCAAUAUUACGUCAG: the “self-splicing fitness (ln)” value is -2.03 ± 0.14 (30 °C) and -2.23 ± 0.18 (37 °C).

As to ACCAAGCAAUAUUACGCGCG, the “self-splicing fitness (ln)” value by setting is: (30 °C) -1.5 ± 0.074; (37 °C) -0.523 ± 0.081.

Consider GGCAAGCAAUAUUACGUAUC, for which the “self-splicing fitness (ln)” value reads like this: (30 °C) -0.35 ± 0.063; (37 °C) 0.0433 ± 0.083.

On to AGUUAGCAAUAUUACGCAGA, for which the “self-splicing fitness (ln)” value was -2.06 ± 0.26 (30 °C) and -2.04 ± 0.26 (37 °C). Consider ACGAAGCAAUAUUACGAAAG, for which the “self-splicing fitness (ln)” value reads like this: (30 °C) -3.2 ± 0.12; (37 °C) -2.32 ± 0.16.

Consider AGACAGCAAUAUUACGGACG, for which the “self-splicing fitness (ln)” value is -1.14 ± 0.066 (30 °C) and -0.531 ± 0.071 (37 °C). As for CGAGAGCAAUAUUACGUUCG, the “self-splicing fitness (ln)” value (30 °C) is -3.2 ± 0.2 and the “self-splicing fitness (ln)” value (37 °C) was -1.73 ± 0.23. Turning to GCGUAGCAAUAUUACGGGGC, the “self-splicing fitness (ln)” value reads like this: (30 °C) -3.47 ± 0.21; (37 °C) -2.67 ± 0.24. For the sequence CUGCAGCAAUAUUACGGCUG, the “self-splicing fitness (ln)” value is, setting by setting: (30 °C) -3.32 ± 0.3; (37 °C) -1.52 ± 0.26. For UCUCAGCAAUAUUACGGAUG, the “self-splicing fitness (ln)” value reads like this: (30 °C) -2.78 ± 0.12; (37 °C) -0.753 ± 0.13. For the sequence UGGGAGCAAUAUUACGACCU, the “self-splicing fitness (ln)” value was -0.992 ± 0.41 (30 °C) and -0.238 ± 0.46 (37 °C).
